Consider one molecule from doi:10.1101/2021.07.21.453268 (bioRxiv, 2021).

The target in this test is T1, 3HA-Atg13 (S. cerevisiae, UniProt Q06628 1-738, hyper-phosphorylated (sites not given)).
T1 sequence (looked up): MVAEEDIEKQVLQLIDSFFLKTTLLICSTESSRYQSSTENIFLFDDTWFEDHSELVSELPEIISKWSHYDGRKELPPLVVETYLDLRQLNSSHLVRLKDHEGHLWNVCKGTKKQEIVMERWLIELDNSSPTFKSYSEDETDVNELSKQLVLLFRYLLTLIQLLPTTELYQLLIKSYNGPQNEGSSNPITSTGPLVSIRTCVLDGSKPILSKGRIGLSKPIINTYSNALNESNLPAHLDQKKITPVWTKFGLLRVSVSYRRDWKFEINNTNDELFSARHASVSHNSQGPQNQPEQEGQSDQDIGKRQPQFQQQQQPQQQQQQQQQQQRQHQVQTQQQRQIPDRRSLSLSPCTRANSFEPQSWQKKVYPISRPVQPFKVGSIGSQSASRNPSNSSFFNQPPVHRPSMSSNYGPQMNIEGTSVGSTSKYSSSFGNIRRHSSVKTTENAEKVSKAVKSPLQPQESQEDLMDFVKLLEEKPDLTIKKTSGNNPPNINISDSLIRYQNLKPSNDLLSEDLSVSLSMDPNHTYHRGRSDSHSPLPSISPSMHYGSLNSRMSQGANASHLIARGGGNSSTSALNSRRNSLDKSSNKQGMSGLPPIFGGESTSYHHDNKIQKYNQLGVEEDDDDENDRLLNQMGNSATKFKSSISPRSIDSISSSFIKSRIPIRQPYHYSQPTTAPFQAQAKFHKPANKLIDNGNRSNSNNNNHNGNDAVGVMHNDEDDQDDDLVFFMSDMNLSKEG
Briefly: pull-down.

B1: 6His-3FLAG-Cdc14m (enzyme, S. cerevisiae, UniProt Q00684 1-551, looked up)
chain: MRRSVYLDNTIEFLRGRVYLGAYDYTPEDTDELVFFTVEDAIFYNSFHLDFGPMNIGHLYRFAVIFHEILNDPENANKAVVFYSSASTRQRANAACMLCCYMILVQAWTPHQVLQPLAQVDPPFMPFRDAGYSNADFEITIQDVVYGVWRAKEKGLIDLHSFNLESYEKYEHVEFGDFNVLTPDFIAFASPQEDHPKGYLATKSSHLNQPFKSVLNFFANNNVQLVVRLNSHLYNKKHFEDIGIQHLDLIFEDGTCPDLSIVKNFVGAAETIIKRGGKIAVHSKAGLGRTGCLIGAHLIYTYGFTANECIGFLRFIRPGMVVGPQQHWLYLHQNDFREWKYTTRISLKPSEAIGGLYPLISLEEYRLQKKKLKDDKRVAQNNIEGELRDLTMTPPSNGHGALSARNSSQPSTANNGSNSFKSSAVPQTSPGQPRKGQNGSNTIEDINNNRNPTSHANRKVVIESNNSDDESMQDTNGTSNHYPKVSRKKNDISSASSSRMEDNEPSATNINNAADDTILRQLLPKNRRVTSGRRTTSAAGGIRKISGSIKK
B1: the binding result was “binds”.
